Earlier results, collected in PMC4788383.
Read-outs that look alike come from different tables or passages of the source.

What was measured:
[1] = biological target: RNA polymerase II CTD peptide CTD (Homo sapiens) (UniProt P24928)
[2] = biological target: RNA polymerase II CTD peptide CTD (Homo sapiens) (UniProt P24928); remark: listed apart in the source

Kd [1]: 61 µM
Kd [2]: 30 µM
Substance: Pin1 (from UniProt Q13526)
